# From IntAct's records for PubMed 18477457
# B1: Beta-catenin homolog sys-1 (Caenorhabditis elegans), Q9XVI2 (parent)
# chain: MHSTGEPQRGPAGPYHHPMPYHVDQIPTTSHPSWHQAPHPGLPTPPYHPQQHPNYISMQPPPSQQQQMTPQALSTQQQQQVQQQQQRQLYSSPSPSRGPAAPAQNQKFRTEQWINNQAWPYSQSPAPPVAPSVMSYHQGDDRMSMLSVNTTMTNQFPDSQRCYSSNGSTCENVNPEMMQMNITQAAEQAIRLWFNTPDPMQRLHMAKTIRTWIRQDKFAQVDQANMPNCVQQILNIIYDGLKPQPVQLPISYYAQLWYNLLDILRRFTFLPIISPYIHQVVQMFCPRENGPQDFRELICNLISLNWQKDPHMKHCANQVFQIFNCIIMGVKNEKLRTEFAQHLKFEKLVGTLSEYFNPQVHPGMINPAIFIIFRFIISKDTRLKDYFIWNNNPHDQPPPPTGLIIKLNAVMIGSYRLIAGQNPETLPQNPELAHLIQVIIRTFDLLGLLLHDSDAIDGFVRSDGVGAITTVVQYPNNDLIRAGCKLLLQVSDAKALAKTPLENILPFLLRLIEIHPDDEVIYSGTGFLSNVVAHKQHVKDIAIRSNAIFLLHTIISKYPRLDELTDAPKRNRVCEIICNCLRTLNNFLMMWIPTPNGETKTAGPNEKQQVCKFIEIDILKKLMSCLSCEGMDTPGLLELRSTILRSFILLLRTPFVPKDGVLNVIDENRKENLIGHICAAYSWVFRQPNNTRTQSTKQQLVERTISLLLVLMEQCGAEKEVAQYSYSIDCPLNLLNGNQVKPTFIHNVLVVCDKILEHCPTRADIWTIDRPMLEGLTNHRNSDIAKAANSLLSRFPENDLLAGIFSNREYF
# partner: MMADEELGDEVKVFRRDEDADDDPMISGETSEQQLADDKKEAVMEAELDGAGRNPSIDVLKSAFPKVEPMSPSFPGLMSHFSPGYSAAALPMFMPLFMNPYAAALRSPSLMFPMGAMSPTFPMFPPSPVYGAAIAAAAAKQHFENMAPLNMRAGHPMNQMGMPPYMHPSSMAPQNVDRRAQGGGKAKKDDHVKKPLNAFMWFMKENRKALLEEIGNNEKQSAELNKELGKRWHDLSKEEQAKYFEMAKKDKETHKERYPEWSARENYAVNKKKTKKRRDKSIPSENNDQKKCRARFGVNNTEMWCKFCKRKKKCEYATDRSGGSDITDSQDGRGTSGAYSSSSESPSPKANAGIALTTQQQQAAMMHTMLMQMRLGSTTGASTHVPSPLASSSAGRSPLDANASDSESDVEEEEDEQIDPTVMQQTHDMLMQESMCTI
# B2: Protein pop-1 (Caenorhabditis elegans), Q10666 (parent)
# chain: B1 partner
# partner: B1 chain
# Variants of: B1
# Conditions: with pop1_caeel pop-1, Q10666
row,effect of a mutation on the interaction,Variant
1,disrupting interaction strength,A533L
2,disrupting interaction strength,K539A

# Variants of: B2
# Conditions: with ctnh1_caeel sys-1, Q9XVI2
row,effect of a mutation on the interaction,Variant
1,disrupting interaction strength,D9E
